Data reported in PMC10419011, “Dynamics of the Second Extracellular Loop Control Transducer Coupling of Peptide-Activated GPCRs” (International Journal of Molecular Sciences, 2023).

Target: T1, K^18-TAMRA-NPY (5/6-tetramethylrhodamine (TAMRA) on the side chain of Lys18)
T1 construct: neuropeptide Y (NPY) with a TAMRA-carrying lysine at position 18; also called Tam-labeled NPY; TAMRA-labeled peptide ligand; source: synthetic peptide (Fmoc/tBu solid phase, RP-HPLC, purity > 95%)
Experiment: fluorescence polarisation; various concentrations of receptor in small DMPC/DHPC bicelles with 50 nM (K^18-TAMRA)-NPY, 1 h at room temperature, measured at 20 °C; sigmoidal dose-response fit
Conditions: both partners purified

B1: Y2R_A202^45.49C,Δ6Cys-IAP (A202^45.49-P1) (receptor)
chain: MGPIGAEADENQTVEEMKVEQYGPQTTPRGELVPDPEPELIDSTKLIEVQVVLILAYASIILLGVIGNSLVIHVVIKFKSMRTVTNFFIANLAVADLLVNTLALPFTLTYTLMGEWKMGPVLCHLVPYAQGLAVQVSTITLTVIALDRHRAIVYHLESKISKRISFLIIGLAWGISALLASPLAIFREYSLIEIIPDFEIVCCTEKWPGEEKSIYGTVYSLSSLLILYVLPLGIISFSYTRIWSKLKNHVSPGAANDHYHQRRQKTTKMLVSVVVVFAVSWLPLHAFQLAVDIDSQVLDLKEYKLIFTVFHIIAMASTFANPLLYGWMNSNYRKAFLSAFRSEQRLDAIHSEVSVTFKAKKNLEVRKNSGPNDSFTEATNV
modifications: cysteine at position 202 labelled with 3-(2-iodacetamido)-proxyl (IAP), thioether-bound spin label side chain P1
  Kd: 81.8 ± 5.1 nM
